Results as given in IntAct's records for PubMed 20534433.

B1: Protein RED1 (Saccharomyces cerevisiae), P14291 (parent)
chain: MEGLKKKIFGVCLKNDLAQTRNETKGIHYGLMTLETSKQLQEFLHLLVIKREVIQNFELLFHIINVAVKITDSNLPSDDIWHFILKLRFSSEINIDEDSKVLNYLLETGIAMENPVSWKCLAVISSILSSVPQSKKIITNLIETEHAKKIGQLFDNIQDLQQGNFLVEILSNCFKKSASNSKKVEKIPQLWQSRSKNKFFFENEFYPFSSKNGSLQTCQFLCNNFMSTLSFTGILRQVSYSGSETLKNLRIFKKKDDENSYFIQCIYNKIYLWLDEKAPLEFERKKIRITKNLKNKIQIKLRQPFHECVRTTADKTALLFNKTKGFQLEFEDEKLGETFFHNVNNIPKISEVQNFLVLDYIEEEPENEGEEEEQIGRADEQKEDEEEESLDELSTPMVYPIKSSIPHNHNEKVQLVTPDRSVSIRSDEWDLKSNTEDEEGNVLADLKISSTKETKRQTDYVHIDSEDQSPVVSAQMRKMRRESTKTLEILRQEFKDKDVQNKEDQSEQIQNPFVNTSSLVVGKSCLVNPKEKPNIDQTVVGITELKSNSSIKKRDINILDTIFGQPPSKKQKQFHKKEKKKQQKKLTNFKPIIDVPSQDKRNLRSNAPTKPKSIKVSKLRTDKKVTGEKSSPETAAEKVDDQTVRSNDEQAMSRATKEKCFPDVNEGKEITKDDAKVSLESKKNNETFVDSSVVEKHTPPDKDCNNCNITDILESTTVIDLQSPHGLSAPGQNTFTNKLQEQIYSSINHFSNELVRKISIINQELNKKILKELSEKYQKLFSELQDNFQNDTNEMLKFMGEIKDMMNLPEDQLVHAIRTRKFDNNKR
partner: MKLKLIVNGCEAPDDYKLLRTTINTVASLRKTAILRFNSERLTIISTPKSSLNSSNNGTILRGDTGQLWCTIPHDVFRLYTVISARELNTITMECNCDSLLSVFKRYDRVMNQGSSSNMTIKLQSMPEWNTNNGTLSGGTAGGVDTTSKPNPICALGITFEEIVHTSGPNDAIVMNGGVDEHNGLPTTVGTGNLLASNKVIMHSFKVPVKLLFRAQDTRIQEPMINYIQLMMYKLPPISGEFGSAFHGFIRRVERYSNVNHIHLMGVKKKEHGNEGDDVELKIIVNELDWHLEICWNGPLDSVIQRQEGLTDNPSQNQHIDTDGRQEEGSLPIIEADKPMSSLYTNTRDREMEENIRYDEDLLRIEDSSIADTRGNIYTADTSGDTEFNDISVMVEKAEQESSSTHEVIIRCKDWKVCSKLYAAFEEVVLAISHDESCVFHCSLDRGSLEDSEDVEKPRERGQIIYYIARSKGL
B2: Protein RED1 (Saccharomyces cerevisiae), P14291 (parent)
chain: B1 chain
partner: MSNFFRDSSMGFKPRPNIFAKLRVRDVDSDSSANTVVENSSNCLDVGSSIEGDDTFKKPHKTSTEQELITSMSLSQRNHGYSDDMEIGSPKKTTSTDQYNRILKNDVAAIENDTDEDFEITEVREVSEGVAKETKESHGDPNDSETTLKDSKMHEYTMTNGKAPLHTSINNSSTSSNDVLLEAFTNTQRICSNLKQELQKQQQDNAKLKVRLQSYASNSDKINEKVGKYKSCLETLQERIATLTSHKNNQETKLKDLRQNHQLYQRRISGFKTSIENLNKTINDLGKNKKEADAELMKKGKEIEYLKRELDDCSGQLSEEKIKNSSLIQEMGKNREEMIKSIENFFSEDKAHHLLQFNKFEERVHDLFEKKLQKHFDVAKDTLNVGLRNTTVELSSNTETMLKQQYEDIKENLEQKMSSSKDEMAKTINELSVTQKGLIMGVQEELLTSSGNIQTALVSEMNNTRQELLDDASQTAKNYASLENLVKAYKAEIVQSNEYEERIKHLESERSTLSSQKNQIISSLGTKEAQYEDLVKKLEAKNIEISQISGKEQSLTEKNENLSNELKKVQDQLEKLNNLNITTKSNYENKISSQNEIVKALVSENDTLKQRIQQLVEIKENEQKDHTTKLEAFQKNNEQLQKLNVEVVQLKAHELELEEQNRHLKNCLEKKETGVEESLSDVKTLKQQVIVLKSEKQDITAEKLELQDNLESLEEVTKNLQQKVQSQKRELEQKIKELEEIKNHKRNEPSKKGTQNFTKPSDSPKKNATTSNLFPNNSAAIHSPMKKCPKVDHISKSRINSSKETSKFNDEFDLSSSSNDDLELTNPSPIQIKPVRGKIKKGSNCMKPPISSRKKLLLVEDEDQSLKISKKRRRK
B3: Protein RED1 (Saccharomyces cerevisiae), P14291 (parent)
chain: B1 chain
partner: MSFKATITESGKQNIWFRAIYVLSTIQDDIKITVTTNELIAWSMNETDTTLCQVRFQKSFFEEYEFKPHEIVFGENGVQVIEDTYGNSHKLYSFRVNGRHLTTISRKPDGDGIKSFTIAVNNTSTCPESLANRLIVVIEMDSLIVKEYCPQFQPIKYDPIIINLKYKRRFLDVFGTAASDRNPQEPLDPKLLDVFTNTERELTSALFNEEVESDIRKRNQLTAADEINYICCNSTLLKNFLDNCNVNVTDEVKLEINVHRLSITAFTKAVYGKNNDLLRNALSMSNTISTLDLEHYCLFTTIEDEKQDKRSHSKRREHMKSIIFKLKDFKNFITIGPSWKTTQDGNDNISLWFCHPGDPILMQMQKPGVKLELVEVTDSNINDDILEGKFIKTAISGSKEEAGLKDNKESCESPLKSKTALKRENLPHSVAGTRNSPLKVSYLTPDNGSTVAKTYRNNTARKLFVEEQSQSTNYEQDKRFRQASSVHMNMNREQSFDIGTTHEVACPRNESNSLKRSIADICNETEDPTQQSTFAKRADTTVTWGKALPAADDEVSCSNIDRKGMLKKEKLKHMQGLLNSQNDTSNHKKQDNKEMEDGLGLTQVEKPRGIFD
B4: Protein RED1 (Saccharomyces cerevisiae), P14291 (parent)
chain: B1 chain
B5: Protein RED1 (Saccharomyces cerevisiae), P14291 (parent)
chain: B1 chain
partner: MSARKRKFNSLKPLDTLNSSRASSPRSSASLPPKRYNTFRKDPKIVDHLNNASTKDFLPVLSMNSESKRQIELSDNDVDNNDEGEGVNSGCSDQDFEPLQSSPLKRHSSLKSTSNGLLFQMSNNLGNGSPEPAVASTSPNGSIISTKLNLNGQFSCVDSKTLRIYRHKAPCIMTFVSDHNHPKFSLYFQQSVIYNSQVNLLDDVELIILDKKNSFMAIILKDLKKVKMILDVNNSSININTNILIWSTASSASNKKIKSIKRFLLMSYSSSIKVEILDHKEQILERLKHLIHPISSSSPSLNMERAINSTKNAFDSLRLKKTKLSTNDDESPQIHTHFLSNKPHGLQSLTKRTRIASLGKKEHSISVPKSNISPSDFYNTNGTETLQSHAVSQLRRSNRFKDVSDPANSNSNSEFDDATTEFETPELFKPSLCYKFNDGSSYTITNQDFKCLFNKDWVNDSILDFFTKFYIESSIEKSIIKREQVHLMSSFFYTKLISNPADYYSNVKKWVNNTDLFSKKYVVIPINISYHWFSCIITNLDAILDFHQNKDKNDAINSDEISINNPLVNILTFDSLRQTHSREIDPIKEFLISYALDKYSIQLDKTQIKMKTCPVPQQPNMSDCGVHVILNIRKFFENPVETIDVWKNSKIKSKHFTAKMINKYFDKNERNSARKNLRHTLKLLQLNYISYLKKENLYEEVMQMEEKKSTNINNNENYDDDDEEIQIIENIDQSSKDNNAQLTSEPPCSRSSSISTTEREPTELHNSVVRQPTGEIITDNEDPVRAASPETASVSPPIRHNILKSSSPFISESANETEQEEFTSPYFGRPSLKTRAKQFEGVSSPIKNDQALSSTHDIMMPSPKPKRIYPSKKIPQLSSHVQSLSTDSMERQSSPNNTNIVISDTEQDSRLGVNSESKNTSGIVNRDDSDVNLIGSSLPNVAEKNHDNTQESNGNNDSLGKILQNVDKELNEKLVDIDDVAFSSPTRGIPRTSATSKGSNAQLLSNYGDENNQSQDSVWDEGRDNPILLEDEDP

Variants of: B1
Settings: with mec3_yeast MEC3, Q02574

Variant | effect of a mutation on the interaction
Q537A;V540A | disrupting interaction strength

Variants of: B2
Settings: with zip1_yeast ZIP1, P31111

Variant | effect of a mutation on the interaction
K569R;K570R;K572R;K576R;K577R;K579R;K580R;K581R;K584R;K585R;K590R | disrupting interaction strength

Variants of: B3
Settings: with ddc1_yeast DDC1, Q08949

Variant | effect of a mutation on the interaction
I743A | disrupting interaction strength

Variants of: B4
Settings: with smt3_yeast SMT3, Q12306
Chain of smt3_yeast SMT3, Q12306 (Q12306 whole entry): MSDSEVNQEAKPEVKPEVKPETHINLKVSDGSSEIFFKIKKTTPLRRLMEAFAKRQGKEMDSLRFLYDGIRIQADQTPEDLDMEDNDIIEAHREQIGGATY

Variant | effect of a mutation on the interaction
K569R;K570R;K572R;K576R;K577R | disrupting interaction strength
K569R;K570R;K572R;K576R;K577R;K579R;K580R;K581R;K584R;K585R;K590R | disrupting interaction strength

Variants of: B5
Settings: with ulp2_yeast ULP2, P40537

Variant | effect of a mutation on the interaction
K569R;K570R;K572R;K576R;K577R;K579R;K580R;K581R;K584R;K585R;K590R | disrupting interaction strength
